From US20240261333A1, “NOVEL TARGETS FOR ENHANCING ANTI-TUMOR IMMUNITY” (THE BROAD INSTITUTE, INC., priority 2021, published 2024)

Assays:
SERBP1 (human) = target: T1, SERBP1 (human) (UniProt Q8NC51); assay: co-IP, IgG control, lysate of cells with N-FLAG B3GNT2; mass spectrometry
T1 sequence (looked up): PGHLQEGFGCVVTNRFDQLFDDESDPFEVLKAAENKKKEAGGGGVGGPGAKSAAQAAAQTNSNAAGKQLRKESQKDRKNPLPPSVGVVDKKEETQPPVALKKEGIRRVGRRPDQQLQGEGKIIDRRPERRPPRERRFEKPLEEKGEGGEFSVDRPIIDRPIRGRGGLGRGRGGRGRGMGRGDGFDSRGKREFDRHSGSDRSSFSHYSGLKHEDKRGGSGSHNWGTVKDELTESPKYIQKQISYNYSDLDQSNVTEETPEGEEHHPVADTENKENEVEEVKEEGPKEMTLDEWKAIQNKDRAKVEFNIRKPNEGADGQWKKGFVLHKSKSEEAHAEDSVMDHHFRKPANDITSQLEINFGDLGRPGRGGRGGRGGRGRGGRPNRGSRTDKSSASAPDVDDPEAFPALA

RPL10 (human) = RPL10 (human) (UniProt P27635); assay: as above
LMNA (human) = LMNA (human) (UniProt P02545); assay: as above
LSM12 (human) = LSM12 (human) (UniProt Q3MHD2); assay: as above
DDX5 (human) = DDX5 (human) (UniProt P17844); assay: as above
RPS3 (human) = RPS3 (human) (UniProt P23396); assay: as above
RPL4 (human) = RPL4 (human) (UniProt P36578); assay: as above
ARPC4 (human) = ARPC4 (human) (UniProt P59998); assay: as above
FUBP3 (human) = FUBP3 (human) (UniProt Q96I24); assay: as above
CSE1L (human) = CSE1L (human) (UniProt P55060); assay: as above
CAT (human) = CAT (human) (UniProt P04040); assay: as above
RPS28 (human) = RPS28 (human) (UniProt P62857); assay: as above
HNRNPA2B1 (human) = HNRNPA2B1 (human) (UniProt P22626); assay: as above
C1orf68 (human) = C1orf68 (human) (UniProt Q5T750); assay: as above
RPL18 (human) = RPL18 (human) (UniProt Q07020); assay: as above
PARP1 (human) = PARP1 (human) (UniProt P09874); assay: as above
G3BP1 (human) = G3BP1 (human) (UniProt Q13283); assay: as above
RBM39 (human) = RBM39 (human) (UniProt Q14498); assay: as above
CAPZA1 (human) = CAPZA1 (human) (UniProt P52907); assay: co-IP/MS, IgG control IP of N-FLAG B3GNT2 cell lysate
CKAP4 (human) = CKAP4 (human) (UniProt Q07065); assay: as above
RPS9 (human) = RPS9 (human) (UniProt P46781); assay: as above
SQSTM1 (human) = SQSTM1 (human) (UniProt Q13501); assay: as above
LRP1 (human) = LRP1 (human) (UniProt Q07954); assay: as above
RPS15 (human) = RPS15 (human) (UniProt P62841); assay: as above
GCN1 (human) = GCN1 (human) (UniProt Q92616); assay: as above
RPL23A (human) = RPL23A (human) (UniProt P62750); assay: as above
RPS5 (human) = RPS5 (human) (UniProt P46782); assay: as above
RPS12 (human) = RPS12 (human) (UniProt P25398); assay: as above
CASP14 (human) = CASP14 (human) (UniProt P31944); assay: as above
RCN2 (human) = RCN2 (human) (UniProt Q14257); assay: as above
PIP (human) = PIP (human) (UniProt P12273); assay: as above
CALU (human) = CALU (human) (UniProt O43852); assay: as above
ATP1A1 (human) = ATP1A1 (human) (UniProt P05023); assay: as above

LSM12 (human), sequence (Q3MHD2 2-195 limits assumed): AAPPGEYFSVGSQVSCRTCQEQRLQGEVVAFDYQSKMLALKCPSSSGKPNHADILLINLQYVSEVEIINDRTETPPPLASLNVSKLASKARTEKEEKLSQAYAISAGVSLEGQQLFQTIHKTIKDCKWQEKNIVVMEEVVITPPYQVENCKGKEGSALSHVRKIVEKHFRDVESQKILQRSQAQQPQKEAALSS
CAT (human), sequence (P04040 2-527 limits assumed): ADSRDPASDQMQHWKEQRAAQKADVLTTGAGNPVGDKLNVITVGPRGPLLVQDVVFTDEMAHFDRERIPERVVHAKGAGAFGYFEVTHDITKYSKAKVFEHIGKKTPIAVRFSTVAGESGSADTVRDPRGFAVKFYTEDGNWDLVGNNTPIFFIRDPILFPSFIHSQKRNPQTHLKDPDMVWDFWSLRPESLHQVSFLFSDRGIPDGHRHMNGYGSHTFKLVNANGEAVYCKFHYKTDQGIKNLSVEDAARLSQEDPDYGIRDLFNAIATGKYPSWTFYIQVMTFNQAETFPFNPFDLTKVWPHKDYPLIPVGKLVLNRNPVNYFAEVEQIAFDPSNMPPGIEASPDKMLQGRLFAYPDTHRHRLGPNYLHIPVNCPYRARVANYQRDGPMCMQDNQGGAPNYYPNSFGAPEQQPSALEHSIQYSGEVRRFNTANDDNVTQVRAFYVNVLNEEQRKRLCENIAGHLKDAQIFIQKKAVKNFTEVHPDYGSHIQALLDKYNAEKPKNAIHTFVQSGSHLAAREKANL
PARP1 (human), sequence (P09874 2-1014 limits assumed): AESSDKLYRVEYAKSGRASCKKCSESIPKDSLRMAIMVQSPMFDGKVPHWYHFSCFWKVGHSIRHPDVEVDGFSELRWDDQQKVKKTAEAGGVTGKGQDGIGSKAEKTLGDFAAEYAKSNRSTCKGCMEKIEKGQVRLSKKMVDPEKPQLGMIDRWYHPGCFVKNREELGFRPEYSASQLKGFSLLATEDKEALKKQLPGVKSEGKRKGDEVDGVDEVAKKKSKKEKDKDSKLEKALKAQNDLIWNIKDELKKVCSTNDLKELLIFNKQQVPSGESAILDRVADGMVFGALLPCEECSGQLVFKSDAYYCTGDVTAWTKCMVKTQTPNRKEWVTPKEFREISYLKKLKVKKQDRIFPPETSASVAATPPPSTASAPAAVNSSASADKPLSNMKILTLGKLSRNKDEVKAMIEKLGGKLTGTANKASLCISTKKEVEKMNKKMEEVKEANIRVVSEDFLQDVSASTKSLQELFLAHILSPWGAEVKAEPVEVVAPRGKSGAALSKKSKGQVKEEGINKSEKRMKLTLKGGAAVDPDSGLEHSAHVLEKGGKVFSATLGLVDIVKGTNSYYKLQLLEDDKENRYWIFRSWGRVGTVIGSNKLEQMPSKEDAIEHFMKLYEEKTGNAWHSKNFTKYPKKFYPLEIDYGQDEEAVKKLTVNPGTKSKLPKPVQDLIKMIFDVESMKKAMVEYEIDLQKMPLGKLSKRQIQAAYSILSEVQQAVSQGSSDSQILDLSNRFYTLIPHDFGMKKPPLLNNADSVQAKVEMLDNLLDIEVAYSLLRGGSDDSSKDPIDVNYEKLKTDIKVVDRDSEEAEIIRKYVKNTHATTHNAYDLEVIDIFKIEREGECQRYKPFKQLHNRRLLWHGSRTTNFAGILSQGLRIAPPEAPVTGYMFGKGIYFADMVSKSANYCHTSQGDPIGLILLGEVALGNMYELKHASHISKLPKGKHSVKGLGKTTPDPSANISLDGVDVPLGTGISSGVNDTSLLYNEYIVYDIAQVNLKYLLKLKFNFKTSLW
GCN1 (human), sequence (Q92616 2-2671 limits assumed): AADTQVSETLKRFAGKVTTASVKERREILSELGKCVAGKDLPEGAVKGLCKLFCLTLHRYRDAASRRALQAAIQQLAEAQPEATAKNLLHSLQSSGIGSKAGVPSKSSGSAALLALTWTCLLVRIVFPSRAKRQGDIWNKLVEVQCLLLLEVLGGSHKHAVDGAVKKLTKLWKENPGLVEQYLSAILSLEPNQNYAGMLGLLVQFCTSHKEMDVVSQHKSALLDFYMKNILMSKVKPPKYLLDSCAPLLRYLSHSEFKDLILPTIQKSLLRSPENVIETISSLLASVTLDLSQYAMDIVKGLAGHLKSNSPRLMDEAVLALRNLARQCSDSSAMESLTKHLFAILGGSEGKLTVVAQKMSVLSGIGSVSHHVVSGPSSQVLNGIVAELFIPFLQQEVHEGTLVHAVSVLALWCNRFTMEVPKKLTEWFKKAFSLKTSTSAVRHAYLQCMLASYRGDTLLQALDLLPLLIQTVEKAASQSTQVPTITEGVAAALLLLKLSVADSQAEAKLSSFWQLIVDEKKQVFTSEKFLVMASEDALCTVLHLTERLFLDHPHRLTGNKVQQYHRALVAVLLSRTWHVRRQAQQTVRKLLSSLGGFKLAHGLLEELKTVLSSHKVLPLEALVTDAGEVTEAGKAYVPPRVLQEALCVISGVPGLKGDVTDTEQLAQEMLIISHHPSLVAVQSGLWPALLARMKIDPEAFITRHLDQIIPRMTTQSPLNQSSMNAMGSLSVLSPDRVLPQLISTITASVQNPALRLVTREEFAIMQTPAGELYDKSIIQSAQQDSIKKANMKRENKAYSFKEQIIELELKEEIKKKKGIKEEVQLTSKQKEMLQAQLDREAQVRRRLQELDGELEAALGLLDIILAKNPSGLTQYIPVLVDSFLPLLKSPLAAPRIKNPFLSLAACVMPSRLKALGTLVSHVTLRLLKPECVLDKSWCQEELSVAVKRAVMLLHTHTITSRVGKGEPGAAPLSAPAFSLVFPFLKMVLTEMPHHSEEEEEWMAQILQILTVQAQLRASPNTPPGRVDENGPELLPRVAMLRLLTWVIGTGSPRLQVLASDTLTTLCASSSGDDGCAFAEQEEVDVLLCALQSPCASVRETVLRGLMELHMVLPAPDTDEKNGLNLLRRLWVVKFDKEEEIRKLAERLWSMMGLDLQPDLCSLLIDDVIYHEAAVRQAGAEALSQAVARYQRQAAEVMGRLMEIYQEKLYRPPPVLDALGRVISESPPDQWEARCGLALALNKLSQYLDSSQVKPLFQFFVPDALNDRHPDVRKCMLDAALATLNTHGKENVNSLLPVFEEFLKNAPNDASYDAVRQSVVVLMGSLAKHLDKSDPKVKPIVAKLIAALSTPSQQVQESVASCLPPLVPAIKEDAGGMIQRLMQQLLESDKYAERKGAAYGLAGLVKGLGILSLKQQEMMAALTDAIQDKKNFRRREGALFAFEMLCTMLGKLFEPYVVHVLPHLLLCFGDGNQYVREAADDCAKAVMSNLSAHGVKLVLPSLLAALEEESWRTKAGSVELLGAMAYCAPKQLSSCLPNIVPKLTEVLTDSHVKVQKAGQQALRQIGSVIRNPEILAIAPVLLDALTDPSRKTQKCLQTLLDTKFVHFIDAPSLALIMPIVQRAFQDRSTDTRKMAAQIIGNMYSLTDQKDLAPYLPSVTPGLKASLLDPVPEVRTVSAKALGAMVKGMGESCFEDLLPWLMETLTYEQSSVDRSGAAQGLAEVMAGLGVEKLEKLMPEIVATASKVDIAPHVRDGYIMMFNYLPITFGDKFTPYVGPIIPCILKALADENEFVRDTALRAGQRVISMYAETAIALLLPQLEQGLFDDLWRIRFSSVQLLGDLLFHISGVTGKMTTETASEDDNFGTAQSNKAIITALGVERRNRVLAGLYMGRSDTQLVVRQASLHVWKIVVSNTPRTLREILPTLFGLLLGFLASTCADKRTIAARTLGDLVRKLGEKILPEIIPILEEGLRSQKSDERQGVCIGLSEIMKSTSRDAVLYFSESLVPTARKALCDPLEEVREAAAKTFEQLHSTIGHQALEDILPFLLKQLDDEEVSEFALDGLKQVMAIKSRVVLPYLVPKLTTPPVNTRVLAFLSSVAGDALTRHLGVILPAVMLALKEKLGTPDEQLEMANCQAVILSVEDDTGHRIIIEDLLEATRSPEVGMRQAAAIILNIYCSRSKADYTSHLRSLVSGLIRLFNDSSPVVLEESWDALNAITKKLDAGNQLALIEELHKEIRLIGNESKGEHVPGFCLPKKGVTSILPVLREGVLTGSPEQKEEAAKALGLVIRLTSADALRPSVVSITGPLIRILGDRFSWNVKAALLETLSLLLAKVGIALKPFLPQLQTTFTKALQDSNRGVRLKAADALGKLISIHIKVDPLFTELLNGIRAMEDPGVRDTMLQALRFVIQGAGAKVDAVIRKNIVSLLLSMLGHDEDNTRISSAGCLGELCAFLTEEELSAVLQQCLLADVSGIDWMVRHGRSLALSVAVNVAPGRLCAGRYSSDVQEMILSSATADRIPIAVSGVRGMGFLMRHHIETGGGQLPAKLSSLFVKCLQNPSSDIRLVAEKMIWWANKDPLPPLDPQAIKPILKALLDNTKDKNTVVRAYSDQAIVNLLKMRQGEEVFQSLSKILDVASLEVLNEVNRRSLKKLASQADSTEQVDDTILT
CASP14 (human), sequence (P31944 whole entry): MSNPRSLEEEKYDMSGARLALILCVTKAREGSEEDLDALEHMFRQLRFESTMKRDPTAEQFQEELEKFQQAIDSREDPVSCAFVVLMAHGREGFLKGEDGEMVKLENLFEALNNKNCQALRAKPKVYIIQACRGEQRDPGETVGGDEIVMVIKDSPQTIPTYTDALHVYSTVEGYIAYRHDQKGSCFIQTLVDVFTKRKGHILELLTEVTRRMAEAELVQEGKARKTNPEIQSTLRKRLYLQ
C1orf68 (human), sequence (Q5T750 whole entry): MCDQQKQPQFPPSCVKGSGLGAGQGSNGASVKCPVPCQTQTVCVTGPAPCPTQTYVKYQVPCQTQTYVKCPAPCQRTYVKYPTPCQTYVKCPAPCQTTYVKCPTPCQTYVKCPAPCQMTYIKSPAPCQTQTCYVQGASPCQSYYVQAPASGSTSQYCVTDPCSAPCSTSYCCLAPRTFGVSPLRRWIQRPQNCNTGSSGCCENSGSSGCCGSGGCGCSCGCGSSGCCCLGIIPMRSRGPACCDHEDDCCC
PIP (human), sequence (P12273 29-146 limits assumed): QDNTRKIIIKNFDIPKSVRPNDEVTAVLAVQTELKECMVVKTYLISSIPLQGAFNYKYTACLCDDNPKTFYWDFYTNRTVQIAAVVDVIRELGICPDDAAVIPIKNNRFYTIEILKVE

IgG control (Millipore Sigma 12-371) (antibody)
co-IP mass spectrometry count (SERBP1 (human)): 4
co-IP mass spectrometry count (RPL10 (human)): 3
co-IP mass spectrometry count (LMNA (human)): 11
co-IP mass spectrometry count (LSM12 (human)): 2
co-IP mass spectrometry count (DDX5 (human)): 18
co-IP mass spectrometry count (RPS3 (human)): 13
co-IP mass spectrometry count (RPL4 (human)): 11
co-IP mass spectrometry count (ARPC4 (human)): 0
co-IP mass spectrometry count (FUBP3 (human)): 8
co-IP mass spectrometry count (CSE1L (human)): 0
co-IP mass spectrometry count (CAT (human)): 2
co-IP mass spectrometry count (RPS28 (human)): 0
co-IP mass spectrometry count (HNRNPA2B1 (human)): 4
co-IP mass spectrometry count (C1orf68 (human)): 0
co-IP mass spectrometry count (RPL18 (human)): 5
co-IP mass spectrometry count (PARP1 (human)): 0
co-IP mass spectrometry count (G3BP1 (human)): 29
co-IP mass spectrometry count (RBM39 (human)): 5
co-IP mass spectrometry count (CAPZA1 (human)): 0
co-IP mass spectrometry count (CKAP4 (human)): 0
co-IP mass spectrometry count (RPS9 (human)): 3
co-IP mass spectrometry count (SQSTM1 (human)): 0
co-IP mass spectrometry count (LRP1 (human)): 0
co-IP mass spectrometry count (RPS15 (human)): 5
co-IP mass spectrometry count (GCN1 (human)): 0
co-IP mass spectrometry count (RPL23A (human)): 3
co-IP mass spectrometry count (RPS5 (human)): 3
co-IP mass spectrometry count (RPS12 (human)): 0
co-IP mass spectrometry count (CASP14 (human)): 3
co-IP mass spectrometry count (RCN2 (human)): 0
co-IP mass spectrometry count (PIP (human)): 0
co-IP mass spectrometry count (CALU (human)): 0
co-IP mass spectrometry count (ATP1A1 (human)): 0
